Results as given in the nanobody polyreactivity screen of Harvey et al. (2022).

Assay: yeast display, Sf9 membrane polyspecificity reagent, FACS + sequencing; frameworks hold sequencing errors
Procedure, shortened: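 Polyreactivity labels are assigned by the sorting gate from which each nanobody was recovered. The gates were low and high (top ~1%), set on anti-HA fluorescence for expression and streptavidin fluorescence for reagent binding. Before sorting, galactose-induced (36–48 hours) yeast display cells were stained for 1 hour at 4 °C with 10% biotinylated, detergent-solubilized Sf9 membrane reagent.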

Row | Sequence | polyreactivity (PSR sort gate)
1 | QVQLVESGGVLVQAGASLRLSCAASGITFVTYAMGWYRQAPGKERELVADISSSGGSSYYADSVKGRFTISLDNAKNTVYLQMNSLKPEDTAVYYWAALATFYPEFDYWGQGTQVTVSS | low polyreactivity
2 | QVQLVESGGVLVQAGCSLRLSCASSGITFKYYAMGRYSQAPGKEREFVAYISARGGGTYYADSVKGRFTISRDNAKNSVYLQMNSLKPEDYAVYYFNAGLIYHQLYSNLYDYWGQGTQVTVSS | high polyreactivity
3 | QVQLVESGGVLVQAGGILRLSCAASGRIFYGNTMGWYRQAHGKERELVAAISRSGGSTYYADSVKGRFTSSRDNAKNTVYLQMNSLKPEDTAVYYCAAKRSWGYDYWGLGTQVTVSS | high polyreactivity
4 | QVQLVESGGVLVQAGGILRLSCAASGSIFYMYAMGWYRQAPGKERELVAAISRSGGRTYYADSVKGRFTISRDNAKNTVYLQMNSLKPEDTAVFYCAARDHYSTGGMKYWGQGTQVTVSS | high polyreactivity
5 | QVQLVESGGVLVQAGGSIRLSCAASGSTSYIYVMGWYRQAPGKERELVATISKNGGDTYADSVKGRFTISRDNAKNTVYLQMNSLKPEDTAVYYCNARAFRYNRRISSRYNYWGQGTQVTVSS | high polyreactivity
6 | QVQLVESGGVLVQAGGSLRISCAASGNTFVHYAMGWYRQAPGKEREFVAAISSSGGSTYYADSVKGRFTISRDNAKNTVYLQMNSLKPEDTAVYYCAAGGWPYSGGWFFQPNYDYWGQGTQVTVSS | low polyreactivity
7 | QVQLVESGGVLVQAGGSLRLSCAASARIFAYSVMGWYRQAPGKEREFVAAISWSGGRTYYAHSVKGRFTISRDNAKNTVYLQMNSLKPEDTAVYYCNAGRPLWLAYGMDYWGQGTQVTVSS | low polyreactivity
8 | QVQLVESGGVLVQAGGSLRLSCAASGFTFAKNAMGWYRQAPGKERELVATISRSGGSTYYADSVKGRFTISRDKAKNTVYLQMNSLKPEDTAVYYCNKKYKYLYDYWGQGTQVTVSS | high polyreactivity
9 | QVQLVESGGVLVQAGGSLRLSCAASGFTFVAYTMGWYRQAPGKDRELVASIPNVGSTNYADSVKGRFTISRDKAMNTVYLLMNSLKPEDTAVYYCAAEYLGWHYLYLPFRDYDSWGQGTQVTVSS | low polyreactivity
10 | QVQLVESGGVLVQAGGSLRLSCAASGFTFWDYAMGWYRHAPGKERELVAAISDNDGSTDYADSVKGRFTISRDNAKNTVYLQMNSLKPEDTAVYYCNAEIELPSKEGDYWGQGTQVTVSS | low polyreactivity
11 | QVQLVESGGVLVQAGGSLRLSCAASGGTFGVYTMGWYRQSPGKERDLVAAISWSGGSTYYADSVKGRFRISRDNAKNTVYLQINSLKPEDTAVYYCAARLKYGRIGVDHWGQGTQVTVSS | high polyreactivity
12 | QVQLVESGGVLVQAGGSLRLSCAASGRIFDRNAMGWYRQAPGKERELVAAIDDSGGDTSYADSVKGRFTISRDNAKNTVYLQMNSLKPEDTAVYYCNAGYADFVTYPRYYYWGQGTQVTVSS | low polyreactivity
13 | QVQLVESGGVLVQAGGSLRLSCAASGRIFYNYGMGWYIQAPGKERELVARITTGGRTNYADSVKGRFTISRDNAKNTVYLQMNSLKPEDTAVYYCNADGYHSRWYYYNYDYWGQGTQVTVSS | low polyreactivity
14 | QVQLVESGGVLVQAGGSLRLSCAASGRTFDRYAMGWYRQAPGKERELVAAITWSGGRTYYADSVKGRFTISRDNAKNTVYLHMNSLKPEDTAVYYCAADNSYRGYHSPYDYWGQGTQVTVSS | low polyreactivity
15 | QVQLVESGGVLVQAGGSLRLSCAASGRTFGWYAMGWYRQAPGKERELVAAITWRGGSTYYADSVKGRFTISRDNAKNTVYLQMNILKPEDTAVYYCAAAAEKRSYYWGQGTQVTVSS | high polyreactivity
16 | QVQLVESGGVLVQAGGSLRLSCAASGSIFDWYVMGWYRQAPGKERELVAAITSTGSTYYADSVKGRFTISLDNAKNTVYLQMNSLKPEDTAVYYCATSFYVYPSYYIMDYWGQGTQVTVSS | low polyreactivity
17 | QVQLVESGGVLVQAGGSLRLSCAASGSIFILYAMGWYRQAPGKEREFVAAITYRGGSTKYADSVKGRFTISRDNAKNNVYLQMNRLKPEDTAVYYCAAGGYWRSPWGSVSRYGYWGQGTQVTVSS | high polyreactivity
18 | QVQLVESGGVLVQAGGSLRLSCAASGSIFILYAMGWYRQAPGKERELVAAISSTGTTYYADSVKGRFTISRDNAKNTVYLQMNSLKPEDTAVYYCATDEHSSGRTPYDYWGQGTQVTVSS | low polyreactivity
19 | QVQLVESGGVLVQAGGSLRLSCAASGSIFWPNSMGWYRQAPGKERELVAGISYSGGRTYYADSVKGRFTISRDNAKNTVYLQMNSLKPEDTAVYYCAALSRRDYNYWGQGTQVTVSS | high polyreactivity
20 | QVQLVESGGVLVQAGGSLRLSCAASGSIFYRYAMGWYRQAPGKERELVAANSSNGVSTYYADSVKGRFTISRDNAKNTVYLQMNSLKPEDTAVYYCARDVYASPRLYTSRYNYWGQGTQVTVSS | low polyreactivity
21 | QVQLVESGGVLVQAGGSLRLSCAASGSTFFVYAMGWYRQAPGKERELVAAISSRGSTYYADSVKGRFTISRDNAKNTVYLQMNSLKPEDTAVYYCAAEYTVSYLRMDYWGQGTQVTVSS | low polyreactivity
22 | QVQLVESGGVLVQAGGSLRLSCAASGSTFLLNTMGWYRQAPGKERELVATITSTDDTNYADSVKGRFTISRDNAKNTVYLHMNSLKPEDTAVYYCAKGYLNYGRDWDFDSWGQGTQVTVSS | low polyreactivity

Row | Sequence | polyreactivity (PSR sort gate)
23 | QVQLVESGGVLVQAGGSLRLSCAASGSTFPRNAMGWYRQAPGKERELVAAISGRGVRTYYADSVKGRFTISRDNAKNTVYLQMNSLKPEDTAVYYCAAERQPYRTSSYNYWGQGTQVTVSS | high polyreactivity
24 | QVQLVESGGVLVQAGGSLRLSCAASGSTFQKYTMGWYRQAPGKERELVAGISGGGSTYYADSVKGRFTISRDNAKNTVYLQMNSLKPEDTAVYSCAAETLYTGPPPRYDYWGQGTQVTVSS | low polyreactivity
25 | QVQLVESGGVLVQAGGSLRLSCAASGSTFSYYAMGWYRQAPGKERELVAAIDSSGGRTYYADSVKGRFTISRDNAKNTVYLHMNSLKPEDTAVYYCAADASYTEGMDYWGQGTQVTVSS | high polyreactivity
26 | QVQLVESGGVLVQAGGSLRLSCAASGSTFTTNAMGWYRQAPGKERELVARISRIGASTHYADSVKGRFTISRDNAKNTVYLQMNSLKPEDTAVYYCAKSKGTPGNFGYWGQGTQVTVSS | low polyreactivity
27 | QVQLVESGGVLVQAGGSLRLSCAASGYIFNKYVMGWYRPAPGKERELVAAISASGGSTYYADSVKGRFTLSRDNAKNTVYLQMNSLKPEDTAVYYCAATLYRRMDYWGQGTQVTVSS | high polyreactivity
28 | QVQLVESGGVLVQAGGSLRLSCAATGSIFQYYAMGWSRQAPGKERELVATNRRSGGSTYYADSVKGRFTISRDTAKHTVFLQMNSLKPEDTAVYYCARRLYTWETGGWRYDSWGQGTQVTVSS | high polyreactivity
29 | QVQLVESGGVLVQARGSLRLSCAASGRTFRYYAMGWYRQAPGQEREMVATISWSGGRTSYADSVKGRFTISRDNAKNTVYLQMNSLKPEDTAVYDCAVESWLDADDSYPDSILVDYWGQGTQVTVSS | low polyreactivity
30 | QVQLVESGGVVVQAGGSLRLRCAASGITIPRYPMGWYRQAPGKERELVAAISPSGGGTYYADSVKGRFTISRDNAKNTVYLQMNSLKPEDTAVYYCAARYLGYLLSGYPPYDYWVQGTQVTVSS | high polyreactivity
31 | QVQLVESGIGLVQAGGSLRLSCAASGSTCDFYAMGWYRPAPGKERELVAAITSDGRTNYADSVKGRFTISRDNAKNTVYLQMNSLKPEDTAVYYCAVTYGYEYDYWGQGTQVTVSS | low polyreactivity
32 | QVQLVESGLGIVQAGGSLRLSCASSGSTFIFNTMVWYRQAPGKERELVAAIRLSGGSTYYADSVKGRFTISRDNAKNTVYLLINSLNPEDTAVYYCARRLATSGHTYDYWGQGTQVSVSS | low polyreactivity
33 | QVQLVESGLGLVQAGGSLRLSCAASGFIFGSYAMGWYRQAPGKERELVAAISWSGGGTYYADSVKGRFTISRDNAKNTVYLQMNSLKPEDTAVYYCNARQFSGLGYWGQGTQVTVSS | high polyreactivity
34 | QVQLVESGLGLVQAGGSLRLSCAASGSIFNIYAMGWYRQAPGKERELVAAITTGTRTYADSVKGLFTISRDNAKNTVYLLMNSLKPEDTAVDYCAAVSPTYPNTFYRYNYWGQGTQVTVSS | low polyreactivity
35 | QVQLVESGLGLVQAGGSLRLSCAASGSIFQRYAMGWYRQAPGKEREFVAAISGRGGSTYYADSVKGRFTISRDNAKNTVYLQMNSLKPEDTAVYYCAADSSRFYGRPRFYYWGQGTQVTVSS | high polyreactivity
36 | QVQLVESGLGLVQAGGSLRLSCAASGSTFYLYTMGWYRQAPGKERELVAAITYSGGRTYYADSVKGRFTISRDNAKNTVYLQMNSLKPEDTAVYYCAARRLPRPWTSTSDYWGQGTQVTVSS | high polyreactivity
37 | QVQLVESGLGLVQAGGSLRLSCASSGSICSTYAMGLYRQAPGKERELVAAITTSGGRTYYADSVKGRFTISRDNAKNSVYLQMNSLKPEDTAVYFCNAVRGGRYGLDYWGQGTQVTVSS | high polyreactivity
38 | QVQLVESGPGLVQAGGSLRLSCASSGFIFRNYPMGWYRHAPGKERELVASISRGTSTNYADSVKGRFTISRDNAKNTVYLQRNSLKPEDTAVYYCNKRFYYHPFDYWGQGTQVTVSS | high polyreactivity
39 | QVQLVESGRGLDQAGGSLRLSCAASGSTFESYVMGWYRQAPGKERELVADITKSGGNTYYADSVKGRFTISRDNWMITVYLLMNSLKPEDTAVYYCAVERGRRGMDYWGQGTQVTVSS | low polyreactivity
40 | QVQLVESGRGLVEAGGSLRLICAASGFIIRYYAMGWYRQAPWKERELVAAISTSGGRTYYADSVKGRFTISRDNAKNTVYLQMNSLKPEDTAVYYCNAYTHNRYYWGQGTQVTVSS | high polyreactivity
41 | QVQLVESGRGLVPAGGSLRLSCAASGSIFTDYAMGWSRKAPGKERELVATITWSDASTYYTDSVKGRFTISRDNAKNTVYLQMNSLKPEDTAVYYFARRSRYSKGYDYWGQGTQVTVSS | low polyreactivity
42 | QVQLVESGRGLVQAGCSLRLSCAASGSILHYNAMGWYRQAPGKERELVASITNSGRTYYADSVKGRFTISRDNAKNTDYLHMNSLKPEDTAVYYCAAQGTWRYFGHRHNYWGQGTQVTVSS | high polyreactivity
43 | QVQLVESGRGLVQAGGSLLLICAASGSTFYTNAMGWYRQAPGKERELVASITGGGSTYYADSVKGRFTISRDNAKNTVYLQMNSLKPEDTAVYYWAAVNFGGGWEFDSWGQGTKVTVSS | low polyreactivity
